Patent US6988446B2, “Purified nitric oxide synthase” (priority 1996, dated 2006)
Like-named read-outs stand apart in the source and are kept apart here. Marks after values point to notes of the source that are not given here. Non-standard residues stand in square brackets, D forms with d. No end group written: not given here. 2Thi = N[C@@H](Cc1cccs1)C(=O)O

Key:
nNOS-II [1] = biological target: T1, nNOS-II (Rattus norvegicus, UniProt P29476); assay: Standard NOS enzyme assay (oxyhemoglobin to methemoglobin), peptides as substrates, initial velocity; format: biochemical; set-up: decrease of activity as substrate: concentration or dose not given beside the values; settings: for relative activity as substrate for nNOS-II (in words): comparator (arginine or BK)
Method: (§1) NOS Activity Assay: NOS activity was determined spectrophotometrically by the rapid and quantitative oxidation of oxyhemoglobin to methemoglobin (Feelish et al., Eur. J. Pharmacol. 139:19-30 (1987); Olken et al., Biochem. Biophys. Res. Commun. 177:828-833 (1991)).
(§2) Thus, reaction mixtures for NOS assays containing 50 mM Tris-HCl buffer (pH 7.5), were optimized to contain 4 μM oxyhemoglobin, 100 μM NADPH, 1 mM CaCl2, 10 μM FAD, 10 μM FMN, 20 μM BH4, 150 μM DTT, 100 μM BK or L-arginine and 0.1-3 μg enzyme in a final volume of 0.5 mL.
(§3) Thus, calmodulin (10 μg/mL) was added to the reaction mixtures when L-arginine was used as substrate.
(§4) NOS activity assay. NOS activity was determined spectrophotometrically by the rapid and quantitative oxidation of oxyhemoglobin to methemoglobin (10,11). Optimized reaction mixtures for NOS assays contained 50 mM Tris-HCl buffer (pH 7.5), and were optimized to contain 4 μM oxyhemoglobin, 100 μM NADPH, 1 mM CaCl2, 10 μM FAD, 10 μM FMN, 20 μM BH. 150 μM DTT, 100 μM BK or L-arginine and 0.1-3 μg enzyme in a final volume of 0.5 ml. Calmodulin (10 μg/ml) was added to the reaction mixtures when L-arginine was used as substrate.

nNOS-II [2] = biological target: T1, nNOS-II; assay: Kinetic determinations (KM, Vmax, Ki) with the standard enzyme assay; format: biochemical
Method: as §1, §2, §3
Kinetic data were calculated by fitting experimental data to the EZ-FIT program (Perrella, Anal. Biochem. 174.437-447 (1988)).
as §4
Kinetic determinations. Kinetic experiments were conducted using the standard enzyme assay described above. […] Kinetic data were calculated by fitting experimental data to EZ-FIT program (12).

nNOS = nNOS (Rattus norvegicus, UniProt P29476); settings: cited from earlier work
[3] = Table 3, substrate 100 μM (poly-arginine 5 μg/ml), purified nNOS-II 0.2 μg, activity for arginine = 100%, means of three measurements
[4] = substrate 100 μM (poly-arginine 5 μg/ml), purified nNOS-II 0.2 μg, activity for arginine = 100%, means of three measurements

T1 sequence (P29476 whole entry): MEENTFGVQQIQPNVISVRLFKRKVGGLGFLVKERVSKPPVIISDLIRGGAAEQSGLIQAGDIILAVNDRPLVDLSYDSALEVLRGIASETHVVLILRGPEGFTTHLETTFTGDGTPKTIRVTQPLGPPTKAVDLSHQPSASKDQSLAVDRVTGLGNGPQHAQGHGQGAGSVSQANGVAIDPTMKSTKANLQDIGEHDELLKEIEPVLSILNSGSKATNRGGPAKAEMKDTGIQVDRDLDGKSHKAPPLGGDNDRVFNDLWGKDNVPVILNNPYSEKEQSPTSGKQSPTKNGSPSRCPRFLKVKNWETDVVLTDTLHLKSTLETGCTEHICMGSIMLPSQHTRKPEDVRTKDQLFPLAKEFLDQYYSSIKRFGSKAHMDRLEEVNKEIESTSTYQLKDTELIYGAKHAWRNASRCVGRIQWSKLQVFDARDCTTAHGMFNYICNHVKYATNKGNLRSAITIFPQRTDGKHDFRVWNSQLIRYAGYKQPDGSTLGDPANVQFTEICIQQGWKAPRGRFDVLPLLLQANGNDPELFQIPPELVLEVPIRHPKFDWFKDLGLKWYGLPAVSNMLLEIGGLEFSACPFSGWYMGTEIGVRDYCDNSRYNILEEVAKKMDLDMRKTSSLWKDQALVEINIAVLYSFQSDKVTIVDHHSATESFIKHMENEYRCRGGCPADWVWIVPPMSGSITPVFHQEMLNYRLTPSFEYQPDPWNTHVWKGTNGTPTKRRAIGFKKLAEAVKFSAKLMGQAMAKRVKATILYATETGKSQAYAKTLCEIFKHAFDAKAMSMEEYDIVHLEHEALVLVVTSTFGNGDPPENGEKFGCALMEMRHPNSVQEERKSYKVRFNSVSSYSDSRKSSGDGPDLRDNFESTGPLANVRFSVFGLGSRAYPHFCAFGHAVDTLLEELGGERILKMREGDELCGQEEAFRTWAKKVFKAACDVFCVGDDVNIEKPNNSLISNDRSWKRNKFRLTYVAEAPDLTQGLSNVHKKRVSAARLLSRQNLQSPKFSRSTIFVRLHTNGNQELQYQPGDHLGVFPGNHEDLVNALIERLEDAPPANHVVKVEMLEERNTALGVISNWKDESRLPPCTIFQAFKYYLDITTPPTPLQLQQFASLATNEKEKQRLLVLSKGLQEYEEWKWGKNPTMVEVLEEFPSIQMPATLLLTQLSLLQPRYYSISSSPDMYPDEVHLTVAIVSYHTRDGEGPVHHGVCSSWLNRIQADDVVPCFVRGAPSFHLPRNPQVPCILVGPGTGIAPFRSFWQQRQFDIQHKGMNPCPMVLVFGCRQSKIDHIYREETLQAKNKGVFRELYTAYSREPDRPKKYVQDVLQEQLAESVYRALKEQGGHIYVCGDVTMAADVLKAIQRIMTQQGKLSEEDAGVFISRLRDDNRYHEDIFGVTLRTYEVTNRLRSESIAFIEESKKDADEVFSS

Molecule: N=C(N)NCCC[C@H](N)C(=O)O [L-arginine]
- Relative Activity (%) (nNOS-II [1]): 100^c %
- Relative activity (%) (nNOS-II [1]): 100^c %
- apparent Vmax (nNOS-II [2]; substrate of nNOS-II, calmodulin added when L-arginine is substrate): 0.85 μmol/min/mg protein
- Km (nNOS; previously described nNOS (Bredt et al.), read-out: reported KM for nNOS): 2 µM
- apparent Vmax for nNOS (nNOS; previously described nNOS, L-arginine as substrate): 0.96 μmol/min/mg protein

Molecule: Arg-Pro-Pro-Gly-Phe (RPPGF; rat) [BK fragment 1-5]
- Relative activity (%) (nNOS-II [1]; [3]): 61%
- Relative Activity (%) (nNOS-II [1]; [4]): 61%
- activity of that for BK (nNOS-II [1]; text of Example 2, relative to BK): about 50%

Molecule: Arg-Pro-Pro-Gly-Phe-Ser-Pro-Phe (APPGFSPF; rat) [Des-Arg^9-BK]
- Relative activity (%) (nNOS-II [1]; [3]): 180%
- Relative Activity (%) (nNOS-II [1]; [4]): 180%
- relative activity as substrate for nNOS-II (in words) (nNOS-II [1]; text of Example 2): about one-fold higher than that of arginine

Molecule: ISRPPGFSPFR [Ile-Ser-BK]
- Relative activity (%) (nNOS-II [1]; [3]): 110%
- Relative Activity (%) (nNOS-II [1]; [4]): 110%

Molecule: KPPGFSPFR [[Lys^1]-BK]
- Relative activity (%) (nNOS-II [1]; [3]): 113%
- Relative Activity (%) (nNOS-II [1]; [4]): 113%

Molecule: Lys-Arg-Pro-Pro-Gly-Phe-Ser-Pro-Phe-Arg [Lys-BK]
- Relative Activity (%) (nNOS-II [1]): 116%
- Relative activity (%) (nNOS-II [1]): 116%
- relative activity as substrate for nNOS-II (in words) (nNOS-II [1]; text of Example 2): almost the same activity

Molecule: Met-Lys-Arg-Pro-Pro-Gly-Phe-Ser-Pro-Phe-Arg [Met-Lys-BK]
- Relative Activity (%) (nNOS-II [1]): 0%
- Relative activity (%) (nNOS-II [1]): 0%
- relative activity as substrate for nNOS-II (in words) (nNOS-II [1]; text of Example 2): no activity at all

Molecule: PPGFSP [BK fragment 2-7]
- Relative activity (%) (nNOS-II [1]; [3]): 0%
- Relative Activity (%) (nNOS-II [1]; [4]): 0%

Molecule: PPGFSPFR [Des-Arg^1-BK]
- Relative activity (%) (nNOS-II [1]; [3]): 94%
- Relative Activity (%) (nNOS-II [1]; [4]): 94%
- relative activity as substrate for nNOS-II (in words) (nNOS-II [1]; text of Example 2): activity similar to that of arginine

Molecule: Poly-arginine
- Relative Activity (%) (nNOS-II [1]): 30%
- Relative activity (%) (nNOS-II [1]): 30%
- activity for nNOS-II comparing to that of arginine (nNOS-II [1]): 30%

Molecule: RPPGFSP [BK fragment 1-7]
- Relative activity (%) (nNOS-II [1]; [3]): 80%
- Relative Activity (%) (nNOS-II [1]; [4]): 80%
- decrease of activity as substrate (nNOS-II [1]; text of Example 2, comparator not stated): 30%

Molecule: RPPGFSPFR [BK]
- Relative activity (%) (nNOS-II [1]; [3]): 125%
- Relative Activity (%) (nNOS-II [1]; [4]): 125%

Molecule: [N-adamantaneacetyl-D-Arg^0, Hyp^3, Thi^5,8, D-Phe^7]-BK
- Ki (nNOS-II [2]; nNOS-II with BK as substrate, competitive inhibition, read-out: apparent Ki): 2500 nM

Molecule: [Thi^5,8, D-Phe^7]-BK (RPPG[2Thi]S[dF][2Thi]R)
- effect on nNOS-II activity (nNOS-II [2]; concentration range of 0.5-100 μM): no effect
- effect on nNOS-II activity (nNOS-II [2]; concentration range of 0.5-100 mM): no effect
